Data as given in PMC2748697, “Capzb2 Interacts with β-Tubulin to Regulate Growth Cone Morphology and Neurite Outgrowth” (PLoS Biology, 2009).

Target: T1, GST-Capza2 (mouse, UniProt P47754 1-286)
T1 construct: Capza2, α2 subunit of F-actin capping protein, from E17 mouse cDNA; primers run from the start codon (atg gcg gat ctg) to the stop codon; pGEX-4T-2 vector; The methods of the native gel say 'Capza2', the legend 'GST-Capza2'; also called α2-subunit; the other CP subunit; source: E. coli BL21-DE3 or ArcticExpress (DE3)RP, purified (glutathione sepharose)
Test: native gel or EMSA; 1 µM GST-Capzb2 or GST-Capzb2Δ106–140 with 1 µM GST-Capza2, 10 min at 4°C, 4%–20% Tris-glycine native gel, bands excised and identified by Western blot
Conditions: both partners purified

B1: GST-Capzb2Δ106–140 (natural protein, mouse, UniProt P47757-2 1-272, looked up)
chain: MSDQQLDCALDLMRRLPPQQIEKNLSDLIDLVPSLCEDLLSSVDQPLKIARDKVVGKDYLLCDYNRDGDSYRSPWSNKYDPPLEDGAMPSARLRKLEVEANNAFDSKKIKGCWDSIHVVEVQEKSSGRTAHYKLTSTVMLWLQTNKSGSGTMNLGGSLTRQMEKDETVSDCSPHIANIGRLVEDMENKIRSTLNEIYFGKTKDIVNGLRSVQTFADKSKQEALKNDLVEALKRKQQC
notes: pGEX-4T-2 vector; also called deletion mutant; source: E. coli BL21-DE3 or ArcticExpress (DE3)RP, purified (glutathione sepharose)
Q: Does B1 bind?
A: Result: binds
